Columns and labels:
[1] = biological target: Daudi; test: FACS binding; Daudi cells
[2] = biological target: HER3 (UniProt P21860); test: kinetic binding data, method not stated
[3] = biological target: Raji (human) (UniProt P11836); test: FACS binding; Raji cells
Sequence of Raji (human) (P11836 whole entry): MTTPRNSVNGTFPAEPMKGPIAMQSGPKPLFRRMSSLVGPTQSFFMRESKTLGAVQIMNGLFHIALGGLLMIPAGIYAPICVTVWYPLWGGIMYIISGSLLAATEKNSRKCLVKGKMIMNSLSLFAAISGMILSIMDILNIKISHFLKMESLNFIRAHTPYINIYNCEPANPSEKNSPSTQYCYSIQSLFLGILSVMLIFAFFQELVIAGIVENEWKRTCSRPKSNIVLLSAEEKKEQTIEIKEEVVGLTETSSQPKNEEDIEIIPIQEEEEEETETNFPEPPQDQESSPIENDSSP

With Epratuzumab/ Ofatumumab (1:1) the EC50 [1] was 6.98 nM.
“FIT019a-Ig HER3 (patritumab)/EGFR (Panitumumab) (bispecific antibody)” gave a Kd [2] of 0.0321 nM.
Epratuzuman/ Ofatumumab (1:1) showed an EC50 [3] of 3.25 nM.

— patent publication US20190233517A1
